# Laboratory results reported in the Human Domainome abundance scans (Beltran et al. 2025).
# ± gives the uncertainty stated by the source.
# B1: Lysine-specific demethylase 2B, residues 656 to 722; numbered along this chain, Q8NHM5 (parent)
# chain: LPHTAVCLVCGEAGKEDTVEEEEGKFNLMLMECSICNEIIHPGCLKIKESEGVVNDELPNCWECPKC
# Variants of: B1
# Test: abundance fitness (aPCA) (normalised: wild type 0, dead -1); higher = more abundant; growth selection in yeast, the domain comes from the species named
# Conditions: Homo sapiens
row,Variant,abundance fitness
1,LPHTAVCLACGEAGKEDTVEEEEGKFNLMLMECSICNEIIHPGCLKIKESEGVVNDELPNCWECPKC,-0.042 ± 0.099
2,LPHTAVCLRCGEAGKEDTVEEEEGKFNLMLMECSICNEIIHPGCLKIKESEGVVNDELPNCWECPKC,-0.297 ± 0.1
3,LPHTAVCLVCGEAGKEDTVEEEEGKFNLMLMECSICAEIIHPGCLKIKESEGVVNDELPNCWECPKC,0.094 ± 0.085
4,LPHTAVCLVKGEAGKEDTVEEEEGKFNLMLMECSICNEIIHPGCLKIKESEGVVNDELPNCWECPKC,-0.124 ± 0.12
5,LPHTAVCLVPGEAGKEDTVEEEEGKFNLMLMECSICNEIIHPGCLKIKESEGVVNDELPNCWECPKC,-0.517 ± 0.23
6,LPHTAVCLVCGECGKEDTVEEEEGKFNLMLMECSICNEIIHPGCLKIKESEGVVNDELPNCWECPKC,-0.297 ± 0.14
7,LPHTAVCLVCGEVGKEDTVEEEEGKFNLMLMECSICNEIIHPGCLKIKESEGVVNDELPNCWECPKC,0.085 ± 0.075
8,LPHTAVCLVCGENGKEDTVEEEEGKFNLMLMECSICNEIIHPGCLKIKESEGVVNDELPNCWECPKC,-0.618 ± 0.23
9,LPHTAVCLVCGEAGKGDTVEEEEGKFNLMLMECSICNEIIHPGCLKIKESEGVVNDELPNCWECPKC,-0.137 ± 0.086
10,LPHTAVCLVCGEAGKEDTVEEEEPKFNLMLMECSICNEIIHPGCLKIKESEGVVNDELPNCWECPKC,-0.481 ± 0.28
11,LPHTAVCLVCGEAGKEDTVEEEEAKFNLMLMECSICNEIIHPGCLKIKESEGVVNDELPNCWECPKC,0.011 ± 0.078
12,LPHTAVCLVCGEAGKEDTVEEEENKFNLMLMECSICNEIIHPGCLKIKESEGVVNDELPNCWECPKC,0.123 ± 0.094
13,LPHTAVCLVCGEAGKEDTVEEEEGKFNLMLMECSICNEIIHPGCLKIKESEGVVNDELPTCWECPKC,-0.091 ± 0.14
14,LPHTAVCLVCGEAGKEDTVEEEEGKFNLMLMECSICNEIIHPHCLKIKESEGVVNDELPNCWECPKC,-0.433 ± 0.32
15,LPHTAVCLVCGEAGKEDTVEEEEGKFNLMLMECSICNEISHPGCLKIKESEGVVNDELPNCWECPKC,0.096 ± 0.074
16,LPHTAVCLVCGEAGKEDTVEEEEGKFNLMLMECSICNEIVHPGCLKIKESEGVVNDELPNCWECPKC,0.215 ± 0.074
17,LPHTAVCLVCGEAGKEDTVEEEEGKFNLMLMECSICNEIQHPGCLKIKESEGVVNDELPNCWECPKC,-0.192 ± 0.056
18,LPHTAVCLVCGEAGKEDTVEEEEGKFNLMLMECSICNEIIHPGCLKIKESEGVVNDELPNCWECPRC,-0.145 ± 0.084
19,LPHTAVCLVCGEAGKEDTVEEEEGKFNLMLMECSICNEIIHPGCLKIKESEGVVNDELPNCWECPQC,-0.551 ± 0.25
20,LPHTAVCLVCGEAGKEDTVEEEEGKFILMLMECSICNEIIHPGCLKIKESEGVVNDELPNCWECPKC,-0.275 ± 0.44

row,Variant,abundance fitness
1,LPHTAVCLVCGEAGKEDTVEEEEGKFLLMLMECSICNEIIHPGCLKIKESEGVVNDELPNCWECPKC,-0.137 ± 0.077
2,LPHTAVCLVCGEAGKEDTVEEEEGKFKLMLMECSICNEIIHPGCLKIKESEGVVNDELPNCWECPKC,0.064 ± 0.083
3,LPHTAVCLVCGEAGKEDTVEEEEGKFVLMLMECSICNEIIHPGCLKIKESEGVVNDELPNCWECPKC,-0.472 ± 0.12
4,LPHTAVCLVCGEAGKEDTVEEEEGKFNLMLMECSICNEIIHPGCLKIKESEGVVNDELPNCWNCPKC,-0.246 ± 0.12
5,LPHTATCLVCGEAGKEDTVEEEEGKFNLMLMECSICNEIIHPGCLKIKESEGVVNDELPNCWECPKC,0.12 ± 0.13
6,LPHTAVCLVCGEAGKEDTVEEEEGKFNLMLMECSICNEIIHPGCLKIRESEGVVNDELPNCWECPKC,-0.168 ± 0.085
7,LPHTAVCLVCGEAGKEDTVEEEEGKFNLMLMECSICNEIIHPGCLKIKESEGVVNDELPNCWECIKC,-0.899 ± 0.31
8,LPHTAVCLVCGEAGKEDTVEEEEGKFNLMLMECSICNEIIHPGCLKIKESEGVVNDELVNCWECPKC,0.007 ± 0.17
9,LPHTAVCLVCGEAGKEDTVEEEEGKFNLMLMECSICNEIIHPGCHKIKESEGVVNDELPNCWECPKC,-0.188 ± 0.18
10,LPHTAVCLVCGEAGKEDTVEEEEGKFNLMLMECSICNEIIHPGCLKIKESEGVVNDWLPNCWECPKC,-0.305 ± 0.11
11,LPHTAVCLVCGEAGKEDFVEEEEGKFNLMLMECSICNEIIHPGCLKIKESEGVVNDELPNCWECPKC,-0.113 ± 0.11
12,LPHTAVCLVCGEAGKEDVVEEEEGKFNLMLMECSICNEIIHPGCLKIKESEGVVNDELPNCWECPKC,-0.569 ± 0.15
13,LPHTAVCLVCGEAGKEDTVEEEEGKFNLMLMECSICNEIIHFGCLKIKESEGVVNDELPNCWECPKC,-0.272 ± 0.19
14,LPHTAVCLVCGEAGKEDTVEEEEGKFNLMLMECSICNEIIHPGCLKIKESEGCVNDELPNCWECPKC,-0.027 ± 0.16
15,MPHTAVCLVCGEAGKEDTVEEEEGKFNLMLMECSICNEIIHPGCLKIKESEGVVNDELPNCWECPKC,0.071 ± 0.082
16,LPHTAVCLVCGEAGKEDTVEESEGKFNLMLMECSICNEIIHPGCLKIKESEGVVNDELPNCWECPKC,-0.01 ± 0.088
17,LPHTAVCLVCGEAGKEDTVEEEEGKFNLMLMECSICNEIIHPGCLKIKESEEVVNDELPNCWECPKC,-0.016 ± 0.12
18,LPHTAVCLVCGEAGKEDTVEYEEGKFNLMLMECSICNEIIHPGCLKIKESEGVVNDELPNCWECPKC,-0.035 ± 0.31
19,LPHTAVCLVCGEAGKEDTVEEEKGKFNLMLMECSICNEIIHPGCLKIKESEGVVNDELPNCWECPKC,0.157 ± 0.14
20,LPHTAVCLVCGEAGKEDTVEEEVGKFNLMLMECSICNEIIHPGCLKIKESEGVVNDELPNCWECPKC,0.035 ± 0.097
